Reference: patent US10279022B2, “Peptides and combination of peptides for use in immunotherapy against various cancers” (immatics biotechnologies GmbH, priority 2015, dated 2019)

Experiments:
HLA-A*02 = HLA-A*02 (Homo sapiens, UniProt P04439, D140Y/D185E/D98H/E176V/E277Q/G131W/G231S/I119V/I121R/I166T/I218V/L300P/N151K/N90K/P208A/P217A/Q86G/Q94H/R138H/R169H); experiment: MHC binding assay by UV-ligand exchange and beta2m ELISA (HLA-A*02); conditions: peptide exchange yield, binding to HLA-A*02; UV-ligand exchange, beta2m ELISA
Source text: (§1) Candidate peptides for T cell based therapies according to the present invention were further tested for their MHC binding capacity (affinity). The individual peptide-MHC complexes were produced by UV-ligand exchange, where a UV-sensitive peptide is cleaved upon UV-irradiation, and exchanged with the peptide of interest as analyzed. Only peptide candidates that can effectively bind and stabilize the peptide-receptive MHC molecules prevent dissociation of the MHC complexes. To determine the yield of the exchange reaction, an ELISA was performed based on the detection of the light chain (β2m) of stabilized MHC complexes. The assay was performed as generally described in Rodenko et al. (Rodenko et al., 2006).
(§2) 96 well MAXISorp plates (NUNC) were coated over night with 2 ug/ml streptavidin in PBS at room temperature, washed 4× and blocked for 1 h at 37° C. in 2% BSA containing blocking buffer. Refolded HLA-A*02:01/MLA-001 monomers served as standards, covering the range of 15-500 ng/ml. Peptide-MHC monomers of the UV-exchange reaction were diluted 100 fold in blocking buffer. Samples were incubated for 1 h at 37° C., washed four times, incubated with 2 ug/ml HRP conjugated anti-β2m for 1 h at 37° C., washed again and detected with TMB solution that is stopped with […]. Absorption was measured at 450 nm. Candidate peptides that show a high exchange yield (preferably higher than 50%, most preferred higher than 75%) are generally preferred for a generation and production of antibodies or fragments thereof, and/or T cell receptors or fragments thereof, as they show sufficient avidity to the MHC molecules and prevent dissociation of the MHC complexes.

CD8+ T cells = experiment: In vitro T-cell priming assay (aAPCs loaded with peptide/MHC and anti-CD28), pMHC multimer readout; assay type: cell-based, human; conditions: for Wells positive [%]: in vitro immunogenicity of HLA class I peptides, peptide specific pMHC multimer staining after three stimulation cycles; for in vitro immunogenicity: Wells: positive wells, HLA-A*02 and HLA-A*24 peptides, healthy donors
Source text: In order to obtain information regarding the immunogenicity of the TUMAPs of the present invention, the inventors performed investigations using an in vitro T-cell priming assay based on repeated stimulations of CD8+ T cells with artificial antigen presenting cells (aAPCs) loaded with peptide/MHC complexes and anti-CD28 antibody.
In order to perform in vitro stimulations by artificial antigen presenting cells loaded with peptide-MHC complex (pMHC) and anti-CD28 antibody, the inventors first isolated CD8+ T cells from fresh HLA-A*02 leukapheresis products via positive selection using CD8 microbeads (Miltenyi Biotec, Bergisch-Gladbach, Germany) of healthy donors obtained from the University clinics Mannheim, Germany, after informed consent.
PBMCs and isolated CD8+ lymphocytes were incubated in T-cell medium (TCM) until use consisting of RPMI-Glutamax (Invitrogen, Karlsruhe, Germany) supplemented with 10% heat inactivated human AB serum (PAN-Biotech, Aidenbach, Germany), 100 U/ml Penicillin/100 μg/ml Streptomycin (Cambrex, Cologne, Germany), 1 mM sodium pyruvate (CC Pro, Oberdorla, Germany), 20 μg/ml Gentamycin (Cambrex). 2.5 ng/ml IL7 (PromoCell, Heidelberg, Germany) and 10 U/ml IL-2 (Novartis Pharma, Nurnberg, Germany) were also added to the TCM at this step.
Generation of pMHC/anti-CD28 coated beads, T-cell stimulations and readout was performed in a highly defined in vitro system using four different pMHC molecules per stimulation condition and 8 different pMHC molecules per readout condition.
The purified co-stimulatory mouse IgG2a anti human CD28 Ab 9.3 (Jung et al., 1987) was chemically biotinylated using Sulfo-N-hydroxysuccinimidobiotin as recommended by the manufacturer (Perbio, Bonn, Germany). Beads used were 5.6 μm diameter streptavidin coated polystyrene particles (Bangs Laboratories, Illinois, USA).
pMHC used for positive and negative control stimulations were A*0201/MLA-001 (peptide […] (SEQ ID NO. 303) from modified Melan-A/MART-1) and A*0201/DDX5-001 ([…] from DDX5, SEQ ID NO. 304), respectively.
800.000 beads/200 μl were coated in 96-well plates in the presence of 4×12.5 ng different biotin-pMHC, washed and 600 ng biotin anti-CD28 were added subsequently in a volume of 200 μl. Stimulations were initiated in 96-well plates by co-incubating 1×10^6 CD8+ T cells with 2×10^5 washed coated beads in 200 μl TCM supplemented with 5 ng/ml IL-12 (PromoCell) for 3 days at 37° C. Half of the medium was then exchanged by fresh TCM supplemented with 80 U/ml IL-2 and incubating was continued for 4 days at 37° C. This stimulation cycle was performed for a total of three times. For the pMHC multimer readout using 8 different pMHC molecules per condition, a two-dimensional combinatorial coding approach was used as previously described (Andersen et al., 2012) with minor modifications encompassing coupling to 5 different fluorochromes. Finally, multimeric analyses were performed by staining the cells with Live/dead near IR dye (Invitrogen, Karlsruhe, Germany), CD8-FITC antibody clone SK1 (BD, Heidelberg, Germany) and fluorescent pMHC multimers. For analysis, a BD LSRII SORP cytometer equipped with appropriate lasers and filters was used. Peptide specific cells were calculated as percentage of total CD8+ cells. Evaluation of multimeric analysis was done using the FlowJo software (Tree Star, Oregon, USA). In vitro priming of specific multimer+CD8+ lymphocytes was detected by comparing to negative control stimulations.

HLA-A*24 = experiment: MHC binding assay by UV-ligand exchange and beta2m ELISA (HLA-A*24); set-up: species or system human; conditions: peptide exchange yield, binding to HLA-A*24; UV-ligand exchange, beta2m ELISA
Source text: as §1, §2

Substance | Peptide exchange (HLA-A*02) | further results
1 (LLYPEPWSV; listed as Homo sapiens) [compound 1] | ++++ (> = 75% = ++++) | –
3 (KLEENGDLYL; listed as Homo sapiens) [compound 3] | ++++ (> = 75% = ++++) | –
4 (KLMPGTYTL; listed as Homo sapiens) [compound 4] | ++++ (> = 75% = ++++) | Wells positive [%] (CD8+ T cells): + (<20% = +)
12 (GLLPLLHRA; listed as Homo sapiens) [compound 12] | ++++ (> = 75% = ++++) | Wells positive [%] (CD8+ T cells): ++++ (> = 70% = ++++)
14 (ILAKDLFEI; listed as Homo sapiens) [compound 14] | ++++ (> = 75% = ++++) | –
16 (YTLDIPVLFGV; listed as Homo sapiens) [compound 16] | ++++ (> = 75% = ++++) | –
34 (FLLATEVVTV; listed as Homo sapiens) [compound 34] | ++++ (> = 75% = ++++) | –
51 (LLFSRLCGA; listed as Homo sapiens) [compound 51] | ++++ (> = 75% = ++++) | –
84 (ALCPRIHEV; listed as Homo sapiens) [compound 84] | ++++ (> = 75% = ++++) | –
92 (GLLFSLRSV; listed as Homo sapiens) [compound 92] | ++++ (> = 75% = ++++) | –
95 (GLLGSLFFL; listed as Homo sapiens) [compound 95] | ++++ (> = 75% = ++++) | –
158 (HYSQELSLLYL; listed as Homo sapiens) [compound 158] | – | Wells positive [%] (CD8+ T cells): + (<20% = +); Peptide exchange (HLA-A*24): ++++ (> = 75% = ++++)
159 (LYNKGFIYL; listed as Homo sapiens) [compound 159] | – | Wells positive [%] (CD8+ T cells): ++++ (> = 70% = ++++); Peptide exchange (HLA-A*24): ++++ (> = 75% = ++++)
163 (DYLKGLASF; listed as Homo sapiens) [compound 163] | – | Wells positive [%] (CD8+ T cells): + (<20% = +); Peptide exchange (HLA-A*24): ++++ (> = 75% = ++++)
165 (DYTTWTALL; listed as Homo sapiens) [compound 165] | – | Wells positive [%] (CD8+ T cells): + (<20% = +); Peptide exchange (HLA-A*24): ++++ (> = 75% = ++++)
167 (NYINRILKL; listed as Homo sapiens) [compound 167] | – | Wells positive [%] (CD8+ T cells): + (<20% = +); Peptide exchange (HLA-A*24): ++++ (> = 75% = ++++)
204 (TYELRYFQI; listed as Homo sapiens) [compound 204] | – | Wells positive [%] (CD8+ T cells): + (<20% = +); Peptide exchange (HLA-A*24): ++++ (> = 75% = ++++)
293 (FLVDGSWSI; listed as Homo sapiens) [compound 293] | – | in vitro immunogenicity: Wells (CD8+ T cells): + (<20% = +)
296 (TYVDSSHTI; listed as Homo sapiens) [compound 296] | – | in vitro immunogenicity: Wells (CD8+ T cells): + (<20% = +)
298 (RYLEGTSCI; listed as Homo sapiens) [compound 298] | – | in vitro immunogenicity: Wells (CD8+ T cells): + (<20% = +)
300 (AYVLRLETL; listed as Homo sapiens) [compound 300] | – | in vitro immunogenicity: Wells (CD8+ T cells): + (<20% = +)
301 (AYKPGALTF; listed as Homo sapiens) [compound 301] | – | in vitro immunogenicity: Wells (CD8+ T cells): + (<20% = +)

Now from value to substance, other results behind:

Peptide exchange (HLA-A*02) | Substance | further results
++++ (> = 75% = ++++) | 112 (SLGKFTFDV; listed as Homo sapiens) [compound 112] | –
++++ (> = 75% = ++++) | 125 (SLADYEHFV; listed as Homo sapiens) [compound 125] | –
++++ (> = 75% = ++++) | 126 (QMFQYFITV; listed as Homo sapiens) [compound 126] | –
++++ (> = 75% = ++++) | 129 (RLQDILWFL; listed as Homo sapiens) [compound 129] | –
++++ (> = 75% = ++++) | 133 (ALLPRLHQL; listed as Homo sapiens) [compound 133] | –
++++ (> = 75% = ++++) | 147 (YLMDDTVEI; listed as Homo sapiens) [compound 147] | –
++++ (> = 75% = ++++) | 153 (FISERVEVV; listed as Homo sapiens) [compound 153] | –
++++ (> = 75% = ++++) | 229 (AILAHLNTV; listed as Homo sapiens) [compound 229] | –
++++ (> = 75% = ++++) | 245 (SLLDLPLSL; listed as Homo sapiens) [compound 245] | –
++++ (> = 75% = ++++) | 248 (YLDRFLAGV; listed as Homo sapiens) [compound 248] | –
++++ (> = 75% = ++++) | 249 (GLCERLVSL; listed as Homo sapiens) [compound 249] | Wells positive [%] (CD8+ T cells): + (<20% = +)
++++ (> = 75% = ++++) | 257 (GLYTDPCGV; listed as Homo sapiens) [compound 257] | –
++++ (> = 75% = ++++) | 258 (LLSERFINV; listed as Homo sapiens) [compound 258] | –
